# Data from the domain aggregation screens of Martell et al. (2025).
# Experiment: soluble fraction after stress (log2 fold change); higher = more stays soluble; pooled small domains, quantitative proteomics
# Conditions: stress: 75 degC
# 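Note: 20 min heating vs room temperature control held 20 min.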
row,Sequence,soluble fraction (log2)
1,HMVIDETVLIDLFERLAEDDRPQRVAFRYILALVLLRKRTLQLIGREDEDDGEIWLLRFKGTDGEPIRV,-0.463
2,HMVIGKHSGSHTLVNDLAKRGITLDKEESATLLEMVRKAAVGLHRSISSDELYGLYKDMKSGQDPFEDS,0.139
3,HMVINVKEILERIKLVKGFHTQIEIARFLGVSKGTISNWLARNSVDFPLVISKLDGVDLNWLFTGIGMPQ,-3.77
4,HMVISNDEFEDYLNRATEQLVSELSSGKNPRDAVHDLALTFADQHNKSYDAYQRMADSLEARMHTL,0.0871
5,HMVITEQTVTVKYLYEDDTEAAPEHSETHKTGETFEIESPKIDGFTPDYELITGTIANDDLVYIVRYKTTP,-0.487
6,HMVITQVSTTQTDTTFQYHKVKPKETLFSISRLYEVSIDEIKTINPALNSRELMAGELLKLPIK,-1.4
7,HMVKGIVPNLIGKTQDEAKQMAEEYGFSIGTVSEKASDKPKGTVIEQSPKAGAKASGVTSINIVVSDGS,-0.121
8,HMVKKYEKVKEYLLERILDGTYVPDLPIPPERELASLLDVNRMTVRRAVEELMYDGYLIRKKGSGTYLTR,-1.6
9,HMVKLSVGDIVQFAGGPHYVSSSAAKPASSPTAGPAKVTMIYQGAKHPYHIVHTTSASTVWGWVDADKVVK,0.0767
10,HMVKNLRKLREELGLTQQRLAELTGISKSRIYSYESLDREPDIAGLITLADFFSVSIDYLVGK,-2.66
11,HMVKPKIILADIGMITETDVTLAKASQAVLIAFNVKPSKEAKKLAEDENIKISTYNIIYEVLDFVKKSMSG,0.304
12,HMVLALRGIVQGGAEPLVILSDGRTSQSLAVGERFLAYEVVEIGRTGVRLRGPEGEIWLAMASF,-1.2
13,HMVLANLQAAEQGDLGIKEGEKLTILQTRPDGWWTARNANGETGLVPK,0.186
14,HMVLFDLSEREKEVLKLLADGNSYKMIASRLEITYFTVNAHLKKIYEKLQVHSASEAVSVALRNSL,-1.19
15,HMVLIQNEDVKDISNYPLLSSVPVFDVFNNKMIIPTFNKDSFNPLIYNFNFNSKRRLIYRVDNTNYLIVIK,0.0494
16,HMVLMPIDALRGSSSSSEMRIAAVKFSPSKGWYFSLQERSDEGSSYYEQKVASDGSVSERVKVR,-0.58
17,HMVLNVMIEEEVHREIIAAISKLPKERRRVVELSMAGFSQEEIAEKMAISVNTVKTIKLRAYRVLRERLKG,-3.78
18,HMVLPELRLQGLPTAVLRLINRATALADDYRRLMEIAEDGRIDEWEAPEFERISENIQRVIAAGFEVL,0.0637
19,HMVLQHHTATKALSYHTSASASAAVKGSFARGDSVQVVQGGSQTADGAKWHKVKVGSSYYYAAAEHLTP,≥ 1.04
20,HMVLTYYSVLGVKTDATTEEIKSTYKQLAIRNHPDRGGSEEVMKMINLAAEILSDPKSRKEYDLSLDA,-2.06
21,HMVLVLPGEMIHVQVIDEGKEMGQGVGYLDDGTMVVVENGLRHIGRAIDVQVTKVLQTNAGRMIFGQPIL,-1.71
22,HMVMAELRISVDRLQIGNYIKLPLSWRDHPFLLSSFMIKKEEQIQLIRQLRLKHVFIIPEKSDAPPKPA,-4.2
23,HMVMNYKKIGKKIADRRILLGITQEELAEKVDSSANYISNIETGIKSGSLIFYIKVANELKLSLDFLFSDE,-3.09
24,HMVMPTGRVRYYDAEKGFGFLSKDSGGDDVYVRSSALPAGVTSLKRGQKVEFGIIDGKRGEQALSVHLL,-0.202
25,HMVMTTVPEVLGMDIRTAASMLTGKNLKYDYDLVESDKPKDEVIEQDQAKGTEVPEGTVVKLKVSKGPA,0.143
26,HMVMTTVPEVLGMDISKAASLLTGKNLDYDYDLVESDKPKDQVIEQDVVKGTEVPEGTVIHLKVSKGPA,0.258
27,HMVMVVDVLKALSNNSSDKFFNTSISNAIKAQEDSQEDFVTLFGIEYEKLSPNNGLAVIFTSQ,0.865
28,HMVNDDTIAATEAEILALLADKHRHHITELNSIRRPYEQIDAALSSLINEEKIFQEDGMLFV,0.543
29,HMVNGEFIDRIKVILQENNATRKKDRLTKTRMYQLLQEEGYEGSYSAFTYQVRIIEEELGINNK,-2.31
30,HMVNSIQIHKKLRLDKRAGSDNWYARLTLPNGKRLVKTTKTEDIETAKEVALRLYYEVDARIQNKLPAT,-1.72
